According to PMC2821528 (Molecular Microbiology, 2009):
Like-named read-outs stand apart in the source and are kept apart here.

Columns and labels:
TolB (Escherichia coli) [1] = biological target: TolB (Escherichia coli) (UniProt P0A855); settings: cited from earlier work
TolB (Escherichia coli) [2] = biological target: TolB (Escherichia coli) (UniProt P0A855); settings: cited from earlier work; remark: listed apart in the source
TolB (E. coli) [3] = biological target: TolB (E. coli) (UniProt P0A855); test: SPR
TolB (E. coli) [4] = biological target: TolB (E. coli) (UniProt P0A855); test: SPR; remark: listed apart in the source
Pal (Escherichia coli) = Pal (Escherichia coli) (UniProt P0A912); settings: cited from earlier work
TolB = TolB (E. coli, UniProt P0A855 22-430); test: SEC

**Q.** What does the source list for Colicin E9 (from UniProt P09883)?
**A.** Kd (TolB (Escherichia coli) [1]): 90 nM; Kd (TolB (Escherichia coli) [2]): 1000 nM

**Q.** For “TA_(1–107), 107-residue peptide of the translocation domain of colicin A (domain or fragment)”, which Kd (TolB (E. coli) [3]) is on record?
**A.** 1600 nM

**Q.** What about the Kd (TolB (E. coli) [4]) of the same molecule?
**A.** 24.3 µM

**Q.** For TolB (from UniProt P0A855), which Kd (Pal (Escherichia coli)) is on record?
**A.** 90 nM

B1: Pal, soluble periplasmic domain (residues 65–173) (domain or fragment, E. coli, UniProt P0A912 65-173, looked up)
chain: LQQNNIVYFDLDKYDIRSDFAQMLDAHANFLRSNPSYKVTVEGHADERGTPEYNISLGERRANAVKMYLQGKGVSADQISIVSYGKEKPAVLGHDEAAYSKNRRAVLVY
**Q.** Does B1 bind (TolB)?
**A.** binds
